Assay results: patent US20190216897A1

Molecular target: IL-18 (human) (UniProt Q14116)
Test: cell-based or functional assay

decrease in proliferation of CD8+ T cells primed with CD5+ DCs (CFSE dilution): 40%
B1: neutralizing anti-IL-18 mAb (125-2H; MLB) (antibody, from another filing, V domains shown)
VH: EIQLQQSGPELVKPGASVKVSCKASGYSFTDYFIYWVKQSHGKSLEWIGDIDPYNGDTSYNQKFRDKATLTVDQSSTTAFMHLNSLTSEDSAVYFCARGLRFWGQGTLVTVSA
VL: DIQMTQSPSSLSASLGERVSLTCRASQDIGSKLYWLQQEPDGTFKRLIYATSSLDSGVPKRFSGSRSGSDYSLTISSLESEDFVDYYCLQYASSPYTFGGGTKLAIKR
